One may read the Kd as the equilibrium constant for the complex coming apart. High values mean lower affinity, low ones higher affinity.

In the experiment the target is ATAD2B bromodomain (residues 953–1085) (human) (UniProt Q9ULI0). Nature of the experiment: ITC. (In general: In ITC the heat of successive injections is recorded.)
ATAD2B bromodomain (residues 953–1085) (human), sequence (Q9ULI0 953-1085): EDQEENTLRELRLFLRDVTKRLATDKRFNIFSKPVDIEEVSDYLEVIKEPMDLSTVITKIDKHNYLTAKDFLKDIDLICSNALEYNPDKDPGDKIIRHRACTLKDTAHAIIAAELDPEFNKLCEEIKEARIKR

H4K12acK16ac (res 10–20) (peptide) returned a Kd of 214 µM.
In turn, H4K12ac (res 4–17) (peptide) had a dissociation constant (Kd) of 50.5 µM.

For the origin of these results see PMC7884259.
